According to patent US20230242586A1, “RAS INHIBITORS AND USES THEREOF” (The Regents of the University of California, priority 2020, published 2023):
Ends that are not written are not given here.

Biological target: biotinylated wildtype K-Ras·GppNHp (His-Avi-TEV-KRAS (wildtype))
Assay: TR-FRET K-Ras(wildtype) + Raf1-RBD
Settings: chains peptide; modification not given; biotin on the Avi tag (co-expressed BirA)

In the case of YFVNFRNFRTFRCG (also: cyclic, ring closure not given here) [KD2], the IC50 is reported as > 100 µM.
